One molecule from publication PMC2607554, “In-Vitro Helix Opening of M. tuberculosis oriC by DnaA Occurs at Precise Location and Is Inhibited by IciA Like Protein” can be followed below.

The data set has as its target T1, IciA (rIciA, LysR family) (Mycobacterium tuberculosis H37Rv, UniProt P9WMF5 1-303).
T1 sequence: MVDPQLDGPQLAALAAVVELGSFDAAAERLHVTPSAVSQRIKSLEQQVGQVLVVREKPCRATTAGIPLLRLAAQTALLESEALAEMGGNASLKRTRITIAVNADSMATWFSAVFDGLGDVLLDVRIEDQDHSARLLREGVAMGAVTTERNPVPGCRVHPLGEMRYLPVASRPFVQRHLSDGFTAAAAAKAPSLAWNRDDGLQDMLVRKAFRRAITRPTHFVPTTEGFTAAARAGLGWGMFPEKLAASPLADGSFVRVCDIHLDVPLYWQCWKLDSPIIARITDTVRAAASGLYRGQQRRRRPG
Description: EMSA; 250-750 ng IciA, 1 ug poly(dI/dC). To be noted: protein: recombinant; tags: His tag (pET28a NdeI/HindIII); chain copies: 4; label: 5' 32P; blunt. On the technique in general: Mobility shift assays separate free from complexed probe on a gel.

B1: A+T rich oriC oligonucleotide (Ori F1/Ori R1) (dsDNA)
DNA 1: TTCTTCCGACAACGTTCTTAAAAAAACTTCTCTA
DNA 2: TAGAGAAGTTTTTTTAAGAACGTTGTCGGAAGAA
As to B1, the binding result is recorded as “binds”.
